The chains are these.
B1: IL-18 polypeptide C142 (ligand)
chain: MFGKLKSKLSIIRNLNDQVLFIDQGNRPLFEDMTDSDARDNAPRTIFIISMYADSQPRGMAVAISVKCEKISTLSAENKIISFKEMNPPDNIKDTKSDIIFFQRSVPGHDNKMQFESSSYEGYFLAAEKERDLFKLILKKEDELGDRSIMFTVQNED
B2: IL-18 polypeptide C155 (ligand)
chain: B1 chain with M1Y, K6E, D40A, A63T
B3: IL-18 polypeptide C154 (ligand)
chain: B1 chain with M1Y, K6E, E31A, D37A, A63T
B4: IL-18 polypeptide C160 (ligand)
chain: B1 chain with M1Y, K6E, A63T, D110A
B5: IL-18 polypeptide C150 (ligand)
chain: B1 chain with M1Y, K6E, T34A, A63T
B6: IL-18 polypeptide C145 (ligand)
chain: B1 chain with M1Y, K6E, S55A, A63T
B7: IL-18 polypeptide C147 (ligand)
chain: B1 chain with M1Y, K6E, D54A, A63T
B8: IL-18 polypeptide C143 (ligand)
chain: B1 chain with M1Y, K6E, A63T
B9: IL-18 polypeptide C159 (ligand)
chain: B1 chain with M1Y, K6E, A63T, H109A
B10: IL-18 polypeptide C153 (ligand)
chain: B1 chain with M1Y, K6E, D37A, A63T
B11: IL-18 polypeptide C152 (ligand)
chain: B1 chain with M1Y, K6E, S36A, A63T
B12: IL-18 polypeptide C161 (ligand)
chain: B1 chain with M1Y, K6E, K8R, A53K, A63T, Q103E
B13: IL-18 polypeptide C148 (ligand)
chain: B1 chain with M1Y, F2A, K6E, A63T
B14: IL-18 polypeptide C149 (ligand)
chain: B1 chain with M1Y, K6E, E31A, A63T
B15: IL-18 polypeptide C146 (SEQ ID NO: 68) (ligand)
chain: B1 chain with M1Y, K6E, M51G, A63T
B16: IL-18 polypeptide C151 (ligand)
chain: B1 chain with M1Y, K6E, D35A, A63T
B17: IL-18 polypeptide C157 (ligand)
chain: B1 chain with M1Y, K6E, A63T, D132A
B18: IL-18 polypeptide C162 (ligand)
chain: B1 chain with M1Y, K6E, K8E, A53K, A63T, Q103R
B19: IL-18 polypeptide C144 (ligand)
chain: B1 chain with M1Y, K6E
B20: IL-18 polypeptide C158 (ligand)
chain: B1 chain with M1Y, K6E, A63T, G108A
B21: IL-18 polypeptide C156 (ligand)
chain: B1 chain with M1Y, K6E, N41A, A63T

Substitutions are numbered along the chain they refer to.

For this assay, the target named is T1, IL-18R on HEK-Blue IL18R reporter cells (UniProt Q13478 19-541; O95256 20-599).
T1 sequence (looked up) 1: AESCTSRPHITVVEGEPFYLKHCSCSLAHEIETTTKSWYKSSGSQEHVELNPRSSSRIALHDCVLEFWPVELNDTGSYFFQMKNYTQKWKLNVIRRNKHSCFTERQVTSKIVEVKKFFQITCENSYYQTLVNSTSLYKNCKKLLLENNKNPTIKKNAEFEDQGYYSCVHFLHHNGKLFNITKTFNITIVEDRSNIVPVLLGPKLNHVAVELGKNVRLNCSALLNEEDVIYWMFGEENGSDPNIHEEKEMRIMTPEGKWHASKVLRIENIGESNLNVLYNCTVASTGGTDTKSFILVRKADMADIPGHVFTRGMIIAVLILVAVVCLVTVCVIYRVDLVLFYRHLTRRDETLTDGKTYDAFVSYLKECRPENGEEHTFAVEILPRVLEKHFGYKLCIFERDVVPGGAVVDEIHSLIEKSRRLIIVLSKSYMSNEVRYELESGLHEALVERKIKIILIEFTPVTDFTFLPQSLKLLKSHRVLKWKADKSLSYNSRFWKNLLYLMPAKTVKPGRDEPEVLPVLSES
T1 sequence (looked up) 2: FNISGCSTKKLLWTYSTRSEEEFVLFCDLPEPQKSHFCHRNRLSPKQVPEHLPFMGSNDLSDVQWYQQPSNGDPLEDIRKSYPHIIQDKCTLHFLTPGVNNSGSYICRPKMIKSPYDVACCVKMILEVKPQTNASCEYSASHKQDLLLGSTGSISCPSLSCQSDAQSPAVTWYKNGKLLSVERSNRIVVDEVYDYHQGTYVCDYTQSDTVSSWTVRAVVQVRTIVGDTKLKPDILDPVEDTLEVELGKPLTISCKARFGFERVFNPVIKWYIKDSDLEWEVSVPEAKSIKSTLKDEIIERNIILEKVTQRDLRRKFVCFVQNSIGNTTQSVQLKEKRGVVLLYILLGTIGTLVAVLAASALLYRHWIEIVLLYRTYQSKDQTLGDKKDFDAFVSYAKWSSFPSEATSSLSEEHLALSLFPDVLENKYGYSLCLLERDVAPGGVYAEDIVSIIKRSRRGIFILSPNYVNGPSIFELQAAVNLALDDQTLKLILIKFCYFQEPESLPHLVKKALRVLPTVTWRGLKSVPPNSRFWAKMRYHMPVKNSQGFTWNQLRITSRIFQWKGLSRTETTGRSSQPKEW
The assay is described as follows: cell-based or functional assay.
On to B1, for which the “EC50, HEK-Blue IL18R SEAP reporter” value was determined as 0.02 pM.

Turning to B2, the “EC50, HEK-Blue IL18R SEAP reporter” value was 0.52 pM.

As for B3, the “EC50, HEK-Blue IL18R SEAP reporter” value was determined as 11.9 pM.

For B4, the “EC50, HEK-Blue IL18R SEAP reporter” value was determined as 2.02 pM.

As to B5, the “EC50, HEK-Blue IL18R SEAP reporter” value worked out at 0.7 pM.

On to B6, for which the “EC50, HEK-Blue IL18R SEAP reporter” value was 3.63 pM.

In the case of B7, the “EC50, HEK-Blue IL18R SEAP reporter” value worked out at 1 pM.

As for B8, the “EC50, HEK-Blue IL18R SEAP reporter” value was determined as 0.98 pM.

As for B9, the “EC50, HEK-Blue IL18R SEAP reporter” value worked out at 19.5 pM.

As for B10, the “EC50, HEK-Blue IL18R SEAP reporter” value was 14.1 pM.

For the molecule B11, the “EC50, HEK-Blue IL18R SEAP reporter” value worked out at 0.25 pM.

As for B12, the “EC50, HEK-Blue IL18R SEAP reporter” value was found to be 2.01 pM.

For the molecule B13, the “EC50, HEK-Blue IL18R SEAP reporter” value was found to be 7.28 pM.

For B14, the “EC50, HEK-Blue IL18R SEAP reporter” value is 6.6 pM.

As for B15, the “EC50, HEK-Blue IL18R SEAP reporter” value came to 0.8 pM.

For B16, the “EC50, HEK-Blue IL18R SEAP reporter” value came out at 13.1 pM.

Take B17: the “EC50, HEK-Blue IL18R SEAP reporter” value stood at 1.95 pM.

For B18, the “EC50, HEK-Blue IL18R SEAP reporter” value was found to be 2.3 pM.

For B19, the “EC50, HEK-Blue IL18R SEAP reporter” value came out at 0.17 pM.

Turning to B20, the “EC50, HEK-Blue IL18R SEAP reporter” value stood at 15.6 pM.

As for B21, the “EC50, HEK-Blue IL18R SEAP reporter” value came to 11.7 pM.

For the origin of these results see patent US20250188166A1 (BRIGHT PEAK THERAPEUTICS, published 2025).
